From patent US20220002407A1
One block for each binder: values may come before it.

Assays:
[1] = biological target: CD19 on CD19-positive human tumor cells (Raji, Raji-Luc, NALM6, Reh) (human) (UniProt P15391); test: cell-based or functional assay
[2] = biological target: CD19 on CD19-positive human tumor cells (Raji, Raji-Luc, NALM6, Reh) (human) (UniProt P15391); test: flow cytometry on CD19-positive Raji cells, AF647 goat anti-human IgG detection
[3] = biological target: CD3 on human T cells (expanded CIK effector cells) (human) (UniProt P07766); test: flow cytometry on expanded CD3-positive human T cells (CIK)
[4] = biological target: CD3 on the membrane of CIK cells (T cells) of a cynomolgus monkey (cynomolgus monkey) (UniProt Q95LI5); test: flow cytometry on cynomolgus monkey CIK (T) cells
Sequence of CD3 on the membrane of CIK cells (T cells) of a cynomolgus monkey (cynomolgus monkey) (Q95LI5 22-198, chain 1 of 3): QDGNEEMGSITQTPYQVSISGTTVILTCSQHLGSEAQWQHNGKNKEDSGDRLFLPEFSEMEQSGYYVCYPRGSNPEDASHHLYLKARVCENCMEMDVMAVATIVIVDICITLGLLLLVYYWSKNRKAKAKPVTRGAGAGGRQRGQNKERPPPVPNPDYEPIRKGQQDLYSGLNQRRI
Sequence of CD3 on the membrane of CIK cells (T cells) of a cynomolgus monkey (cynomolgus monkey) (Q95LI8 22-171, chain 2 of 3, further chain): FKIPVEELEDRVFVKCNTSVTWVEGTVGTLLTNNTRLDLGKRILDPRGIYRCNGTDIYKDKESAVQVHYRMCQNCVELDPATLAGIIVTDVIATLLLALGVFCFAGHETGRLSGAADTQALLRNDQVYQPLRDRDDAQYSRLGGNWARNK
Sequence of CD3 on the membrane of CIK cells (T cells) of a cynomolgus monkey (cynomolgus monkey) (Q95LI7 23-181, chain 3 of 3, further chain): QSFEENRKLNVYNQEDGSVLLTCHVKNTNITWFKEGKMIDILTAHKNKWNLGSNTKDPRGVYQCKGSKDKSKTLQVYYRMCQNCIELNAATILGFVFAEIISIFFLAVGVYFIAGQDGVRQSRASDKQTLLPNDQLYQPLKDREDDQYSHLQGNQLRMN

Sequence of CD3 on human T cells (expanded CIK effector cells) (human) (P07766 23-207, chain 1 of 3): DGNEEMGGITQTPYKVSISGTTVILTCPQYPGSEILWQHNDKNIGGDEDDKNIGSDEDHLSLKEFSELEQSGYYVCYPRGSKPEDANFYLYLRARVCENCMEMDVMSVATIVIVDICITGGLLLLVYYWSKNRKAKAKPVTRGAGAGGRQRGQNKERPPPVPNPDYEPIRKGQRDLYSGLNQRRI
Sequence of CD3 on human T cells (expanded CIK effector cells) (human) (P04234 22-171, chain 2 of 3, further chain): as the sequence (Q95LI8 22-171, chain 2 of 3, further chain) above, with V5I, K15N, V20I, T32S, N33D, N34I, A64T, N74S, L83V, R141H counted along it
Sequence of CD3 on human T cells (expanded CIK effector cells) (human) (P09693 23-182, chain 3 of 3, further chain): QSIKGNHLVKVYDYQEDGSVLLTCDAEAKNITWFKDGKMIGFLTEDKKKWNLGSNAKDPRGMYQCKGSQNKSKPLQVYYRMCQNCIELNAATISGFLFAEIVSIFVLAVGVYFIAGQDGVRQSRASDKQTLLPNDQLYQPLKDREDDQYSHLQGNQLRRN
Sequence of CD19 on CD19-positive human tumor cells (Raji, Raji-Luc, NALM6, Reh) (human) (P15391 20-556): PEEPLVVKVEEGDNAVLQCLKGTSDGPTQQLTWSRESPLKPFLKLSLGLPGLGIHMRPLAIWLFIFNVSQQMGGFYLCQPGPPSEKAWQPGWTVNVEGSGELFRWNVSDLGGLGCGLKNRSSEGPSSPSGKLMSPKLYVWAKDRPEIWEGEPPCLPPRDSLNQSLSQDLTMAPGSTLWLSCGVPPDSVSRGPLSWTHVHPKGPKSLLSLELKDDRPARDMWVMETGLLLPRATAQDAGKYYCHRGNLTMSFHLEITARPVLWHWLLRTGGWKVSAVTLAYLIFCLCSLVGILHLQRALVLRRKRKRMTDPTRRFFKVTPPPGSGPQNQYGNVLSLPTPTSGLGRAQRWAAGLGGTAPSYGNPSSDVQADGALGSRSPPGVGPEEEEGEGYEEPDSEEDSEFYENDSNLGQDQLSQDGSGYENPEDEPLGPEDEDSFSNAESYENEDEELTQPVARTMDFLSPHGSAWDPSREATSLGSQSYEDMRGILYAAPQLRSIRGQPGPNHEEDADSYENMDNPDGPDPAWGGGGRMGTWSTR

EC50 of activation of NFAT-RE luciferase reporter Jurkat T cells in the presence of Raji target cells [1]: 1080 pM
EC50 [2]: 1390 pM
EC50 [3]: 15700 pM
EC50 [4]: 5500 pM
B1: bispecific antibody AB23P7 (anti-CD19×CD3) (bispecific antibody)
chain: QVQLQESGPGLVKPSQTLSLTCTVSGGSISTSGMGVGWIRQHPGKGLEWIGHIWWDDDKRYNPALKSRVTISVDTSKNQFSLKLSSVTAADTAVYYCARMELWSYYFDYWGQGTLVTVSSGGGGSGGGGSGGGGSEIVLTQSPATLSLSPGERATLSCSASSSVSYMHWYQQKPGQAPRLLIYDTSKLASGIPARFSGSGSGTDFTLTISSLEPEDVAVYYCFQGSVYPFTFGQGTKLEIKGGGGGGSGGGGSGGGGSSSSSKAPPPSEVQLLESGGGLVQPGGSLKLSCAASGFTFNTYAMNWVRQAPGKGLEWVARIRSKYNNYATYYADSVKDRFTISRDDSKNTAYLQMNNLKTEDTAVYYCVRHGNFGNSYVSWFAYWGQGTLVTVSSGGGGSGGGGSGGGGSELVVTQEPSLTVSPGGTVTLTCRSSTGAVTTSNYANWVQQKPGQAPRGLIGGTNKRAPGTPARFSGSLLGGKAALTLSGVQPEDEAEYYCALWYSNLWVFGGGTKLTVLDKTHTCPPCPAPEAAGGPSVFLFPPKPKDQLMISRTPEVTCVVVDVSHEDPEVKFNWYVDGVEVHNAKTKPREEQYASTYRVVSVLTVLHQDWLNGKEYKCKVSNKALPASIEKTISKAKGQPREPQVYTLPPSRDELTKNQVSLTCLVKGFYPSDIAVEWESNGQPENNYKTTPPVLDSDGSFFLYSKLTVDKSRWQQGNVFSCSVLHEALHNHYTQKSLSLSPG
modifications: Homodimer: two identical copies of this chain, joined by covalent (hinge disulfide) bonds; one copy is given.
EC50 to mediate CIK to kill different tumor cells (Reh) [1]: 1.71 pM
EC50 to mediate CIK to kill tumor cells (Raji-LUC) [1]: 0.699 pM
EC50 to mediate CIK to kill tumor cells (Raji-LUC, second row without label) [1]: 0.202 pM
EC50 to mediate PBMCs to kill tumor cells (Raji-LUC) [1]: 1.23 pM
EC50 to mediate PBMCs to kill tumor cells (Raji-LUC, second row without label) [1]: 1.25 pM

EC50 of activation of NFAT-RE luciferase reporter Jurkat T cells in the presence of Raji target cells [1]: 709 pM
EC50 [2]: 2680 pM
EC50 [3]: 32400 pM
EC50 [4]: 5500 pM
B2: bispecific antibody AB23P10 (anti-CD19×CD3) (bispecific antibody)
chain: QVQLQESGPALVKPTQTLTLTCTFSGFSLSTSGMGVGWIRQPPGKALEWLAHIWWDDDKRYNPALKSRLTISKDTSKNQVFLTMTNMDPVDTATYYCARMELWSYYFDYWGQGTLVTVSSGGGGSGGGGSGGGGSENVLTQSPATLSVTPGEKATLSCSASSSVSYMHWYQQKPGQAPRLLIYDTSKLASGIPARFSGSGSGTDHTLTISSLEAEDVAVYYCFQGSVYPFTFGQGTKLEIKGGGGGGSGGGGSGGGGSSSSSKAPPPSEVQLLESGGGLVQPGGSLKLSCAASGFTFNTYAMNWVRQAPGKGLEWVARIRSKYNNYATYYADSVKDRFTISRDDSKNTAYLQMNNLKTEDTAVYYCVRHGNFGNSYVSWFAYWGQGTLVTVSSGGGGSGGGGSGGGGSELVVTQEPSLTVSPGGTVTLTCRSSTGAVTTSNYANWVQQKPGQAPRGLIGGTNKRAPGTPARFSGSLLGGKAALTLSGVQPEDEAEYYCALWYSNLWVFGGGTKLTVLDKTHTCPPCPAPEAAGGPSVFLFPPKPKDQLMISRTPEVTCVVVDVSHEDPEVKFNWYVDGVEVHNAKTKPREEQYASTYRVVSVLTVLHQDWLNGKEYKCKVSNKALPASIEKTISKAKGQPREPQVYTLPPSRDELTKNQVSLTCLVKGFYPSDIAVEWESNGQPENNYKTTPPVLDSDGSFFLYSKLTVDKSRWQQGNVFSCSVLHEALHNHYTQKSLSLSPG
modifications: Homodimer: two identical copies of this chain, joined by covalent (hinge disulfide) bonds; one copy is given.
EC50 to mediate CIK to kill different tumor cells (NALM6) [1]: 4.4 pM
EC50 to mediate CIK to kill different tumor cells (Reh) [1]: 1.64 pM
EC50 to mediate CIK to kill tumor cells (Raji-LUC) [1]: 0.128 pM
EC50 to mediate CIK to kill tumor cells (Raji-LUC, second row without label) [1]: 0.483 pM
EC50 to mediate PBMCs to kill tumor cells (Raji-LUC) [1]: 0.946 pM
EC50 to mediate PBMCs to kill tumor cells (Raji-LUC, second row without label) [1]: 1.25 pM
EC50 to mediate PBMCs to kill tumor cells (Raji-LUC, third row without label) [1]: 4.18 pM

EC50 of activation of NFAT-RE luciferase reporter Jurkat T cells in the presence of Raji target cells [1]: 853 pM
EC50 [2]: 2600 pM
EC50 [3]: 49500 pM
B3: bispecific antibody AB23P9 (anti-CD19×CD3) (bispecific antibody)
chain: QVQLQESGPGLVKPTQTLSLTCTVSGGSISTSGMGVGWIRQHPGKGLEWIGHIWWDDDKRYNPALKSRVTISVDTSKNQVFLKLSSVTAADTAVYYCARMELWSYYFDYWGQGTTVTVSSGGGGSGGGGSGGGGSEIVLTQSPATLSLSPGERATITCRASQSVSYMHWYQQKPGQAPRLLIYDASNRASGVPSRFSGSGSGTDFTLTISSLEPEDAATYYCFQGSVYPFTFGQGTKLEIKGGGGGGSGGGGSGGGGSSSSSKAPPPSEVQLLESGGGLVQPGGSLKLSCAASGFTFNTYAMNWVRQAPGKGLEWVARIRSKYNNYATYYADSVKDRFTISRDDSKNTAYLQMNNLKTEDTAVYYCVRHGNFGNSYVSWFAYWGQGTLVTVSSGGGGSGGGGSGGGGSELVVTQEPSLTVSPGGTVTLTCRSSTGAVTTSNYANWVQQKPGQAPRGLIGGTNKRAPGTPARFSGSLLGGKAALTLSGVQPEDEAEYYCALWYSNLWVFGGGTKLTVLDKTHTCPPCPAPEAAGGPSVFLFPPKPKDQLMISRTPEVTCVVVDVSHEDPEVKFNWYVDGVEVHNAKTKPREEQYASTYRVVSVLTVLHQDWLNGKEYKCKVSNKALPASIEKTISKAKGQPREPQVYTLPPSRDELTKNQVSLTCLVKGFYPSDIAVEWESNGQPENNYKTTPPVLDSDGSFFLYSKLTVDKSRWQQGNVFSCSVLHEALHNHYTQKSLSLSPG
modifications: Homodimer: two identical copies of this chain, joined by covalent (hinge disulfide) bonds; one copy is given.
EC50 to mediate CIK to kill tumor cells (Raji-LUC) [1]: 0.148 pM
EC50 to mediate PBMCs to kill tumor cells (Raji-LUC) [1]: 1.01 pM

EC50 of activation of NFAT-RE luciferase reporter Jurkat T cells in the presence of Raji target cells [1]: 1120 pM
EC50 [2]: 1920 pM
EC50 [3]: 16700 pM
B4: bispecific antibody AB23P8 (anti-CD19×CD3) (bispecific antibody)
chain: QVTLRESGPALVKPTQTLTLTCTFSGFSLSTSGMGVGWIRQPPGKALEWLAHIWWDDDKRYNPALKSRLTISKDTSKNQVFLTMTNMDPVDTATYYCARMELWSYYFDYWGQGTTVTVSSGGGGSGGGGSGGGGSENVLTQSPATLSVTPGEKATITCRASQSVSYMHWYQQKPGQAPRLLIYDASNRASGVPSRFSGSGSGTDHTLTISSLEAEDAATYYCFQGSVYPFTFGQGTKLEIKGGGGGGSGGGGSGGGGSSSSSKAPPPSEVQLLESGGGLVQPGGSLKLSCAASGFTFNTYAMNWVRQAPGKGLEWVARIRSKYNNYATYYADSVKDRFTISRDDSKNTAYLQMNNLKTEDTAVYYCVRHGNFGNSYVSWFAYWGQGTLVTVSSGGGGSGGGGSGGGGSELVVTQEPSLTVSPGGTVTLTCRSSTGAVTTSNYANWVQQKPGQAPRGLIGGTNKRAPGTPARFSGSLLGGKAALTLSGVQPEDEAEYYCALWYSNLWVFGGGTKLTVLDKTHTCPPCPAPEAAGGPSVFLFPPKPKDQLMISRTPEVTCVVVDVSHEDPEVKFNWYVDGVEVHNAKTKPREEQYASTYRVVSVLTVLHQDWLNGKEYKCKVSNKALPASIEKTISKAKGQPREPQVYTLPPSRDELTKNQVSLTCLVKGFYPSDIAVEWESNGQPENNYKTTPPVLDSDGSFFLYSKLTVDKSRWQQGNVFSCSVLHEALHNHYTQKSLSLSPG
modifications: Homodimer: two identical copies of this chain, joined by covalent (hinge disulfide) bonds; one copy is given.
EC50 to mediate CIK to kill tumor cells (Raji-LUC) [1]: 0.586 pM
EC50 to mediate PBMCs to kill tumor cells (Raji-LUC) [1]: 1.02 pM
